{
  "source": "patent US20220289816A1",
  "about": "“IMMUNOTHERAPY WITH B*07 RESTRICTED PEPTIDES AND COMBINATION OF PEPTIDES AGAINST CANCERS AND RELATED METHODS” (Immatics Biotechnologies GmbH, priority 2018, published 2022)",
  "data": [
    {"target": "HLA-B*07 (Homo sapiens, UniProt P01889)", "assay": "MHC binding assay (UV-ligand exchange, ELISA of stabilized MHC complexes)", "details": "peptide exchange yield on HLA-B*07, UV-ligand exchange", "summary_of_the_method": "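Binding is reported as exchange yield: an ELISA with HRP-conjugated anti-β2m (A450, TMB) quantified how much test peptide stabilized MHC after UV cleavage of a photolabile placeholder peptide. Exchange monomers were diluted 100-fold and captured on streptavidin-coated plates for 1 h at 37 °C.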", "values": [
      {"substance": "357 (LPPHIFAI; listed as Homo sapiens) [compound 357]", "Peptide exchange": "++ (>20% = ++)"},
      {"substance": "358 (APSMLRKNQL; listed as Homo sapiens) [compound 358]", "Peptide exchange": "+++ (>50 = +++)"},
      {"substance": "359 (SPRRLVELAGQSL; listed as Homo sapiens) [compound 359]", "Peptide exchange": "++++ (>75% = ++++)"},
      {"substance": "360 (SPASRSISLL; listed as Homo sapiens) [compound 360]", "Peptide exchange": "++++ (>75% = ++++)"},
      {"substance": "362 (KPMLPPAAF; listed as Homo sapiens) [compound 362]", "Peptide exchange": "+++ (>50 = +++)"},
      {"substance": "363 (KPRTPFTTA; listed as Homo sapiens) [compound 363]", "Peptide exchange": "++++ (>75% = ++++)"},
      {"substance": "367 (APQVHIFSL; listed as Homo sapiens) [compound 367]", "Peptide exchange": "++++ (>75% = ++++)"},
      {"substance": "368 (NPASRLTAL; listed as Homo sapiens) [compound 368]", "Peptide exchange": "++++ (>75% = ++++)"},
      {"substance": "369 (RPYGCVLRAA; listed as Homo sapiens) [compound 369]", "Peptide exchange": "++++ (>75% = ++++)"},
      {"substance": "370 (AAHEFGHVL; listed as Homo sapiens) [compound 370]", "Peptide exchange": "++ (>20% = ++)"},
      {"substance": "371 (APRSPGQVTPRGL; listed as Homo sapiens) [compound 371]", "Peptide exchange": "+++ (>50 = +++)"},
      {"substance": "372 (SPSSASLTL; listed as Homo sapiens) [compound 372]", "Peptide exchange": "++++ (>75% = ++++)"},
      {"substance": "373 (LPKPDLPQLI; listed as Homo sapiens) [compound 373]", "Peptide exchange": "+ (>10% = +)"},
      {"substance": "374 (KPRNMTGLDL; listed as Homo sapiens) [compound 374]", "Peptide exchange": "++++ (>75% = ++++)"},
      {"substance": "375 (LPRGVLEGL; listed as Homo sapiens) [compound 375]", "Peptide exchange": "++++ (>75% = ++++)"},
      {"substance": "376 (FPQVGRTAL; listed as Homo sapiens) [compound 376]", "Peptide exchange": "++++ (>75% = ++++)"},
      {"substance": "377 (SPFSKRIKL; listed as Homo sapiens) [compound 377]", "Peptide exchange": "+++ (>50 = +++)"},
      {"substance": "378 (SPRQPRLDF; listed as Homo sapiens) [compound 378]", "Peptide exchange": "++++ (>75% = ++++)"},
      {"substance": "379 (GPRQVLFPL; listed as Homo sapiens) [compound 379]", "Peptide exchange": "++++ (>75% = ++++)"},
      {"substance": "380 (SPYPGSAAF; listed as Homo sapiens) [compound 380]", "Peptide exchange": "++++ (>75% = ++++)"},
      {"substance": "381 (APRPRLLLL; listed as Homo sapiens) [compound 381]", "Peptide exchange": "+++ (>50 = +++)"},
      {"substance": "382 (RPGPQRTTSV; listed as Homo sapiens) [compound 382]", "Peptide exchange": "++++ (>75% = ++++)"},
      {"substance": "383 (KPRATWTLKL; listed as Homo sapiens) [compound 383]", "Peptide exchange": "+++ (>50 = +++)"},
      {"substance": "448 (TVYGEPRKL; listed as Homo sapiens) [compound 448]", "Peptide exchange": "++ (>20% = ++)"},
      {"substance": "449 (RPKTSVNLISSL; listed as Homo sapiens) [compound 449]", "Peptide exchange": "++++ (>75% = ++++)"},
      {"substance": "450 (SAAARALLP; listed as Homo sapiens) [compound 450]", "Peptide exchange": "+ (>10% = +)"},
      {"substance": "451 (VPILPLNHAL; listed as Homo sapiens) [compound 451]", "Peptide exchange": "++++ (>75% = ++++)"},
      {"substance": "452 (QPVKKNTL; listed as Homo sapiens) [compound 452]", "Peptide exchange": "++++ (>75% = ++++)"},
      {"substance": "453 (APALPGQVTI; listed as Homo sapiens) [compound 453]", "Peptide exchange": "++++ (>75% = ++++)"},
      {"substance": "454 (SPDPAHLESL; listed as Homo sapiens) [compound 454]", "Peptide exchange": "++++ (>75% = ++++)"},
      {"substance": "455 (FPVQATIDF; listed as Homo sapiens) [compound 455]", "Peptide exchange": "++++ (>75% = ++++)"},
      {"substance": "456 (VPVSHPVLTL; listed as Homo sapiens) [compound 456]", "Peptide exchange": "+++ (>50 = +++)"},
      {"substance": "457 (RPPLSQRHTF; listed as Homo sapiens) [compound 457]", "Peptide exchange": "++++ (>75% = ++++)"},
      {"substance": "458 (VPIPTHYFVVL; listed as Homo sapiens) [compound 458]", "Peptide exchange": "++++ (>75% = ++++)"},
      {"substance": "459 (SPAPWRPWI; listed as Homo sapiens) [compound 459]", "Peptide exchange": "++++ (>75% = ++++)"},
      {"substance": "460 (APLMPLGKTL; listed as Homo sapiens) [compound 460]", "Peptide exchange": "++++ (>75% = ++++)"},
      {"substance": "461 (MPHLGPGILL; listed as Homo sapiens) [compound 461]", "Peptide exchange": "++++ (>75% = ++++)"},
      {"substance": "462 (MPLLADVRL; listed as Homo sapiens) [compound 462]", "Peptide exchange": "++++ (>75% = ++++)"},
      {"substance": "463 (LPTDLFNSVM; listed as Homo sapiens) [compound 463]", "Peptide exchange": "++++ (>75% = ++++)"},
      {"substance": "464 (VPFVPRTSV; listed as Homo sapiens) [compound 464]", "Peptide exchange": "+++ (>50 = +++)"},
      {"substance": "465 (VPKSLPYVL; listed as Homo sapiens) [compound 465]", "Peptide exchange": "++++ (>75% = ++++)"},
      {"substance": "466 (SPMEAILVSRL; listed as Homo sapiens) [compound 466]", "Peptide exchange": "++++ (>75% = ++++)"},
      {"substance": "467 (VPRNQDWLGVSRQL; listed as Homo sapiens) [compound 467]", "Peptide exchange": "++++ (>75% = ++++)"},
      {"substance": "468 (LPSLHVLVL; listed as Homo sapiens) [compound 468]", "Peptide exchange": "++++ (>75% = ++++)"},
      {"substance": "469 (LPLDTRTSI; listed as Homo sapiens) [compound 469]", "Peptide exchange": "++++ (>75% = ++++)"},
      {"substance": "470 (RPNGEVKSEL; listed as Homo sapiens) [compound 470]", "Peptide exchange": "++++ (>75% = ++++)"},
      {"substance": "471 (LPLLAGTLLL; listed as Homo sapiens) [compound 471]", "Peptide exchange": "++ (>20% = ++)"},
      {"substance": "472 (LPMPAITWY; listed as Homo sapiens) [compound 472]", "Peptide exchange": "++ (>20% = ++)"},
      {"substance": "473 (LPGEREAAL; listed as Homo sapiens) [compound 473]", "Peptide exchange": "++++ (>75% = ++++)"},
      {"substance": "474 (VPKADLLTL; listed as Homo sapiens) [compound 474]", "Peptide exchange": "++++ (>75% = ++++)"},
      {"substance": "475 (IPLEIQKL; listed as Homo sapiens) [compound 475]", "Peptide exchange": "+ (>10% = +)"},
      {"substance": "476 (EPNPVEEIF; listed as Homo sapiens) [compound 476]", "Peptide exchange": "++ (>20% = ++)"},
      {"substance": "477 (NPVPVITWYKDNRL; listed as Homo sapiens) [compound 477]", "Peptide exchange": "++++ (>75% = ++++)"},
      {"substance": "478 (APKFISPASQL; listed as Homo sapiens) [compound 478]", "Peptide exchange": "++++ (>75% = ++++)"},
      {"substance": "479 (APHAGGALL; listed as Homo sapiens) [compound 479]", "Peptide exchange": "++++ (>75% = ++++)"},
      {"substance": "480 (VPAAPTKAL; listed as Homo sapiens) [compound 480]", "Peptide exchange": "+++ (>50 = +++)"},
      {"substance": "481 (SPARALLLALA; listed as Homo sapiens) [compound 481]", "Peptide exchange": "+++ (>50 = +++)"},
      {"substance": "482 (QPSLKKIIL; listed as Homo sapiens) [compound 482]", "Peptide exchange": "++++ (>75% = ++++)"},
      {"substance": "483 (KPAAAGVKKVA; listed as Homo sapiens) [compound 483]", "Peptide exchange": "+++ (>50 = +++)"},
      {"substance": "484 (LPASAEPKGTM; listed as Homo sapiens) [compound 484]", "Peptide exchange": "++ (>20% = ++)"},
      {"substance": "486 (TPTRPLPSA; listed as Homo sapiens) [compound 486]", "Peptide exchange": "++ (>20% = ++)"},
      {"substance": "487 (IPWFIKTAF; listed as Homo sapiens) [compound 487]", "Peptide exchange": "++++ (>75% = ++++)"},
      {"substance": "488 (LPLGGLPLLI; listed as Homo sapiens) [compound 488]", "Peptide exchange": "+++ (>50 = +++)"},
      {"substance": "489 (WPNHIMLVL; listed as Homo sapiens) [compound 489]", "Peptide exchange": "++++ (>75% = ++++)"},
      {"substance": "490 (APRGPAQGEAA; listed as Homo sapiens) [compound 490]", "Peptide exchange": "++++ (>75% = ++++)"},
      {"substance": "491 (MPEADLKRIF; listed as Homo sapiens) [compound 491]", "Peptide exchange": "++ (>20% = ++)"},
      {"substance": "492 (IPFSVDEI; listed as Homo sapiens) [compound 492]", "Peptide exchange": "+ (>10% = +)"},
      {"substance": "493 (LPLQQYKLV; listed as Homo sapiens) [compound 493]", "Peptide exchange": "+ (>10% = +)"},
      {"substance": "494 (LPLRAVNLNL; listed as Homo sapiens) [compound 494]", "Peptide exchange": "+++ (>50 = +++)"},
      {"substance": "495 (SPSYTQASL; listed as Homo sapiens) [compound 495]", "Peptide exchange": "++++ (>75% = ++++)"},
      {"substance": "496 (MPAVSGPGPLF; listed as Homo sapiens) [compound 496]", "Peptide exchange": "+++ (>50 = +++)"},
      {"substance": "497 (YVVKPLHPF; listed as Homo sapiens) [compound 497]", "Peptide exchange": "+++ (>50 = +++)"},
      {"substance": "498 (RPQPQPRPAL; listed as Homo sapiens) [compound 498]", "Peptide exchange": "++++ (>75% = ++++)"},
      {"substance": "499 (QPVLPSPAC; listed as Homo sapiens) [compound 499]", "Peptide exchange": "++++ (>75% = ++++)"}
    ]}
  ]
}
